Reference: publication PMC4407285 (Cell Reports, 2015)

T1: Candida glabrata Slx1 (Candida glabrata, UniProt Q6FML9 1-312)
T1 sequence: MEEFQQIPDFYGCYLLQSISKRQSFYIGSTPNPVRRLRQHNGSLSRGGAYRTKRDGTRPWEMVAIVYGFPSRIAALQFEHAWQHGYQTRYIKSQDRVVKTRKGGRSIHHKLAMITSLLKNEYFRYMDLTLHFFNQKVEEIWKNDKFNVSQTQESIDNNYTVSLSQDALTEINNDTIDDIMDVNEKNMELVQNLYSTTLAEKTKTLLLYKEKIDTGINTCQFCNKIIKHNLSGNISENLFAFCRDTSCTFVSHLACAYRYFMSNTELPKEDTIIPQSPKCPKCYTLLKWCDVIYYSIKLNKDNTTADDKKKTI

B1: Candida glabrata Slx4 CCD3 (residues 647-726) (domain or fragment, UniProt Q6FJQ6 647-726, looked up)
chain: SNQKKVGVTSKSEVFEFLTHLVKQEPDLLTRIYCFQPITMNDLINKLRNKDSFVDLIDDGTIREWTDKLGICIRSNNLKD

Columns and labels:
[1] = molecular target: Candida glabrata Slx1 (Candida glabrata) (UniProt Q6FML9); assay: AUC
[2] = molecular target: Candida glabrata Slx1 (Candida glabrata) (UniProt Q6FML9); assay: SEC-MALS
Candida glabrata Slx1 = molecular target: T1, Candida glabrata Slx1; assay: co-purification

Molecule | stoichiometry N [1] | stoichiometry N [2] | binding result (Candida glabrata Slx1)
Candida glabrata Slx4 conserved C-terminal domain (domain or fragment) | 1 | 1 | 
B1 |  |  | binds
